Assay results from paper PMC9454804.

Experiments:
[1] = target: Vascular Endothelial Growth Factor Receptor 1 (VEGFR1) (mouse (endogenous in C57BL/6 and eNOS-KO skeletal muscle)) (UniProt P35969)
[2] = target: Vascular Endothelial Growth Factor Receptor 1 (VEGFR1) (mouse (endogenous in C57BL/6 and eNOS-KO skeletal muscle)) (UniProt P35969); remark: listed apart in the source
[3] = target: Vascular Endothelial Growth Factor Receptor 1 (VEGFR1) (mouse (endogenous in C57BL/6 and eNOS-KO skeletal muscle)) (UniProt P35969); remark: listed apart in the source

Sequence of UniProt P35969 (P35969 23-1333 S1181G): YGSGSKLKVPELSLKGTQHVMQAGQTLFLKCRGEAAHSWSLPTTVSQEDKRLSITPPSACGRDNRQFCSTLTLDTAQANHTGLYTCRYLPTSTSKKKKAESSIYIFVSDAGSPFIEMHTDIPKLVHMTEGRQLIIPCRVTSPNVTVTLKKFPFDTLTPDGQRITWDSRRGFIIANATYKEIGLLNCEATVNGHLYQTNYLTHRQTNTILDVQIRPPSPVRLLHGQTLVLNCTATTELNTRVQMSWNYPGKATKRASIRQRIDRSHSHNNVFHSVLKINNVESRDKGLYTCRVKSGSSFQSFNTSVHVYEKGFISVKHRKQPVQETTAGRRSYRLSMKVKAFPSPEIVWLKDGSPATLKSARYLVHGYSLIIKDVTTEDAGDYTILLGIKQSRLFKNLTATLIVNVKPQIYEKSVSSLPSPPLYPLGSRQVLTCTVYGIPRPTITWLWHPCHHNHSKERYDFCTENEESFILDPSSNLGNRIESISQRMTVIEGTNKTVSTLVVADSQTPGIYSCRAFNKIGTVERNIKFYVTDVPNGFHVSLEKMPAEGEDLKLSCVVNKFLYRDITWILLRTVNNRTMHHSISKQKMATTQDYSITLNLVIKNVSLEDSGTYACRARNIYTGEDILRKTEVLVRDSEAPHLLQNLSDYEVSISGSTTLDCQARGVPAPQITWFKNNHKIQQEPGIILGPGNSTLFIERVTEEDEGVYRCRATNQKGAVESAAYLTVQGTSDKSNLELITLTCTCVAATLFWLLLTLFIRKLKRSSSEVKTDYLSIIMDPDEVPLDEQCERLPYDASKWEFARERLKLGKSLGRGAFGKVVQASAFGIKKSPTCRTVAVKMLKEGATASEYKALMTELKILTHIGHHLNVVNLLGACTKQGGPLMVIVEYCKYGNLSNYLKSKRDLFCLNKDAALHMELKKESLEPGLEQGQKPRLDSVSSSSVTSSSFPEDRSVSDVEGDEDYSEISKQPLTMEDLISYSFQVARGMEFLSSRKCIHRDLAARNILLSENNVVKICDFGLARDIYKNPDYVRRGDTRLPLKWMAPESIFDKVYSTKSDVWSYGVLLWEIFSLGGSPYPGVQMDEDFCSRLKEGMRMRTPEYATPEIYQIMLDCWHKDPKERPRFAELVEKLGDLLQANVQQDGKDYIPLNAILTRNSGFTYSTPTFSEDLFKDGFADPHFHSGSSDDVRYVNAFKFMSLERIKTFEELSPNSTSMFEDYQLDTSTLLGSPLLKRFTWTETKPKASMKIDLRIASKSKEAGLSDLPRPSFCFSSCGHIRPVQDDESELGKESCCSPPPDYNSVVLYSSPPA

pSTAT3 activation, HFD-ischemic muscle treated with VEGF165b-Ab vs. IgG at day 3 post-HLI [1]: 1.5 fold | pVEGFR1(Y1333) activation, HFD-ischemic muscle treated with VEGF165b-Ab vs. IgG at day 3 post-HLI [1]: 1.5 fold | pVEGFR1(Y1333) activation in VEGFR1 pull-down fractions, non-ischemic HFD vs. non-ischemic normal chow muscle [2]: 1.5 fold | pSTAT3 activation, eNOS-KO ischemic muscle treated with VEGF165b-Ab vs. IgG [3]: 1.4 fold | pVEGFR1(Y1333) activation in VEGFR1 pull-down fractions, eNOS-KO ischemic muscle treated with VEGF165b-Ab vs. IgG [3]: 1.3 fold
Substance: anti-angiogenic VEGF-A isoform VEGF165b (ligand)
